We go through 1 molecule from paper PMC12852372, “Phosphorylation-driven conformational switching of the ArnA–ArnB complex involved in archaeal motility regulation” (Frontiers in Microbiology, 2025).

This assay addresses T1, phosphorylated ArnB (ArnB~P), phosphorylated by the kinase ArnC (Sulfolobus acidocaldarius, UniProt Q4J9H3 2-380, phosphothreonine at T353, T363 and T375 (almost complete within the first 5 min with ArnC); phosphothreonine at T322 and T335 only after 15 min).
T1 construct: ArnB of Sulfolobus acidocaldarius, Saci_1211; also called tagged ArnB; source: E. coli BL21(DE3) Rosetta; phosphorylated by ArnC in the mixed lysate (ATP, MnCl2, 55 °C, 5-60 min); in lysate for the pull-downs; purified (Ni-NTA, SEC) for HDX-MS; not shown: His6, C-terminal, kept
T1 sequence: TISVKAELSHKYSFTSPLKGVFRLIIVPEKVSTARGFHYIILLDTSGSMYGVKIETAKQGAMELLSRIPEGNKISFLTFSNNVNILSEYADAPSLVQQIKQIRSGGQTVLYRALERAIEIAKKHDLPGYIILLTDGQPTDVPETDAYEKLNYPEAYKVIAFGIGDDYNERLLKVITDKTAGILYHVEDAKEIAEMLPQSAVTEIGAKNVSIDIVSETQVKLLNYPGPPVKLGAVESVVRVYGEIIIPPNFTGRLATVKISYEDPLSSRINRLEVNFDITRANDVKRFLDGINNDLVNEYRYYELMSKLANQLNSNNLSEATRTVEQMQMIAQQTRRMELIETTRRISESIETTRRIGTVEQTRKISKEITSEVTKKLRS
Description: HDX-MS; ArnA, ArnB, ArnB~P and ArnA/ArnB~P (isolated by Ni-NTA via the His6 tag of ArnB, then SEC); 50 μM stocks in 20 mM Tris-Cl pH 8.0, 150 mM NaCl; 25 °C; 10-10,000 s. The conditions noted are these: both partners purified.

B1: ArnA (Saci_1210) (natural protein, Sulfolobus acidocaldarius)
chain: TWKCNLCGYENDDDALFCIKCGAQKSSEAQQLPQQQPSEPQAQGVVTQQQVVTNPPVQAQVATPQQPAQQPVLPQPEPAQPQPVSSTPAPQQASQPTNRYYIYFIQTPNENLVNKKVLLNFDLFPSVSMGRSPENIVIVPDSEVSRKHAVIYLDNSELYIEDLNSTNGTYVYDGKQFTPIKGKQKIEPNSIIKLGNQTIVRILKE
notes: ArnA of Sulfolobus acidocaldarius, Saci_1210; N-terminal zinc-finger (ZnF) domain, disordered linker (S28-N99) and C-terminal FHA domain; In the crystal (PDB 8S05) only the ZnF domain (P16-K42) is defined by density; also called StrepII-tagged ArnA; source: E. coli BL21(DE3) Rosetta; purified (heat treatment, Ni-NTA, SEC) for crystals, SAXS and HDX-MS; co-expressed with His6-ArnB, in lysate, for …
As for B1, the binding result is on record as “binds”.
